Data reported in patent EP4813396A2 (Amphivena Therapeutics, Inc., dated 2026).
Where a chain is given by its changes, count along the chain named. Where “and” joins values, the source holds several entries; their conditions need not be identical. Equal entries are not always repeated.

Key:
[1] = molecular target: T1, human CD33 on cells (human, UniProt P20138 18-364); assay: cell-based or functional assay
[2] = molecular target: T1, human CD33 on cells; assay: cell-based or functional assay; remark: listed apart in the source
[3] = molecular target: T2, human CD3 on T cells (human, UniProt P07766 23-207); assay: cell-based or functional assay
T2 sequence (P07766 23-207): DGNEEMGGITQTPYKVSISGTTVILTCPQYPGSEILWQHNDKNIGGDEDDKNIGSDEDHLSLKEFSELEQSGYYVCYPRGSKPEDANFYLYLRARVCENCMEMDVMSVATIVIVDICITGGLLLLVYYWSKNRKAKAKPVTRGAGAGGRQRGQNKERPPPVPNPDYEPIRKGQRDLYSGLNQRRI

[4] = molecular target: T1, human CD33 on cells; assay: flow cytometry, HL-60 cells
[5] = molecular target: T1, human CD33 on cells; assay: flow cytometry, titration on KG-1 cells
[6] = molecular target: T1, human CD33 on cells; assay: flow cytometry, titration on HL-60 cells
[7] = molecular target: T1, human CD33 on cells; assay: flow cytometry, titration on U-937 cells
[8] = molecular target: T2, human CD3 on T cells; assay: flow cytometry, human T-cells (as headed in Table 10)
[9] = molecular target: T2, human CD3 on T cells; assay: flow cytometry, titration on human CD3+ T cells (Jurkat per paragraph 124/paragraph 125)
[10] = molecular target: cynomolgus CD33 on CHO cells (cynomolgus monkey); assay: flow cytometry; KD on CHO-cynomolgus CD33 cells divided by KD on CHO-human CD33 cells
[11] = molecular target: T1, human CD33 on cells; assay: cell-based or functional assay; remark: listed apart in the source
[12] = molecular target: T1, human CD33 on cells; assay: cell-based or functional assay; remark: listed apart in the source
[13] = molecular target: T1, human CD33 on cells; assay: cell-based or functional assay; remark: listed apart in the source

T1 sequence (P20138 18-364): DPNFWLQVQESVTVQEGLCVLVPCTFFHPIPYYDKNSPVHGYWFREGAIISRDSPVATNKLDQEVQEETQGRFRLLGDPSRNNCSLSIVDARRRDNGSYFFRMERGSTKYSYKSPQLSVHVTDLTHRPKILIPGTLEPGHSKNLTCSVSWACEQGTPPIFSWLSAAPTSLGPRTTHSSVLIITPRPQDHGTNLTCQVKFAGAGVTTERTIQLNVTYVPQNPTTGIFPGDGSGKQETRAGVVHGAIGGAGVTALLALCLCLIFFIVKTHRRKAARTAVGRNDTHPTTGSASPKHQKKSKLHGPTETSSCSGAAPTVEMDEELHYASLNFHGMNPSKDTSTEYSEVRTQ

B1: CD33/CD3 tandem diabody 19 (bispecific antibody)
chain: DIQMTQSPSSLSASVGDRVTITCRSSTGAVTTSNYANWVQQKPGKAPKALIGGTNKRAPGVPSRFSGSLIGDKATLTISSLQPEDFATYYCALWYSNLWVFGQGTKVEIKGGSGGSQVQLVQSGAEVKKPGASVKVSCKASGYTFTSYYMHWVRQAPGQGLEWMGIINPSGGSTSYAQKFQGRVTMTRDTSTSTVYMELSSLRSEDTAVYYCARDVVPAAIDYYGMDVWGQGTTVTVSSGGSGQSVLTQPPSASGTPGQRVTISCSGSSSNIGSNTVNWYQQLPGTAPKLLIYSDNQRPSGVPDRFSGSKSGSSASLAISGLQSDDEADYYCATWDDSLNGAVFGGGTKLTVLGGSGGSEVQLVESGGGLVQPGGSLRLSCAASGFTFSTYAMNWVRQAPGKGLEWVGRIRSKYNNYATYYADSVKDRFTISRDDSKNSLYLQMNSLKTEDTAVYYCARHGNFGNSYVSYFAYWGQGTLVTVSSAAAGSHHHHHH
notes: Non-covalent homodimer; domain order 1; also called TandAb 19
- IC50, lysis of KG-1 cells with human T cells (E:T 5:1, 24 h) [1]: ~5 pM
- EC50 on HL-60 [pM] (cytotoxicity) [2]: 5.7 pM
- CD25 Induction EC50 (pM) [3]: 9 pM
- CD69 Induction EC50 (pM) [3]: 5 pM
- T cell Proliferation in PBMC EC50 (pM) [3]: 6 pM
- Kd [4]: 2.8 nM
- Kd [5]: 3.6 nM
- Kd [6]: 2.8 nM
- Kd [7]: 5.4 nM
- Kd [8]: 6.3 nM
- Kd [9]: 6.3 nM
- KD ratio cynoCD33/ huCD33 [10]: 37.3

B2: CD33/CD3 tandem diabody 12 (bispecific antibody)
chain: DIQMTQSPSSLSASVGDRVTITCRSSTGAVTTSNYANWVQQKPGKAPKALIGGTNKRAPGVPSRFSGSLIGDKATLTISSLQPEDFATYYCALWYSNLWVFGQGTKVEIKGGSGGSQVQLVQSGAEVKKPGASVKVSCKASGYTFTSYDINWVRQAPGQGLEWMGWMNPNSGNTGFAQKFQGRVTMTRDTSTSTVYMELSSLRSEDTAVYYCARDRAVTDYYYGMDVWGQGTLVTVSSGGSGQSVLTQPPSASGTPGQRVTISCSGSRSNIGSNTVNWYQQLPGTAPKLLIYGNNQRPSGVPDRFSGSKSGTSASLAISGLQSEDEADYYCATWDDSLIGWVFGGGTKLTVLGGSGGSEVQLVESGGGLVQPGGSLRLSCAASGFTFSTYAMNWVRQAPGKGLEWVGRIRSKYNNYATYYADSVKDRFTISRDDSKNSLYLQMNSLKTEDTAVYYCARHGNFGNSYVSYFAYWGQGTLVTVSSAAAGSHHHHHH
notes: Non-covalent homodimer; domain order 1; also called TandAb 12
- IC50, lysis of KG-1 cells with human T cells (E:T 5:1, 24 h) [1]: ~0.01 pM
- EC50 on HL-60 [pM] (cytotoxicity) [2]: 1.3 pM
- EC50 [pM (pg/mL)] on human CD33+ target cell lines: HL-60 (cytotoxicity, E:T 5:1, 20-24 h) [11]: 1.3 pM and 137 pg/mL
- EC50 [pM (pg/mL)] on human CD33+ target cell lines: KG-1 (cytotoxicity, E:T 5:1, 20-24 h) [11]: 1.2 pM and 126 pg/mL
- EC50 [pM (pg/mL)] on human CD33+ target cell lines: U-937 (cytotoxicity, E:T 5:1, 20-24 h) [11]: 0.8 pM and 84 pg/mL
- EC50 [pM (pg/mL)] on human CD33+ target cell lines: mean of HL-60, U-937, KG-1 [11]: 1.1 pM and 116 pg/mL
- CD25 Induction EC50 (pM) [3]: 6 pM
- CD69 Induction EC50 (pM) [3]: 3 pM
- T cell Proliferation in PBMC EC50 (pM) [3]: 2 pM
- EC50 [pM] mean, cytotoxicity on BV-173 cells [12]: 1.4 pM
- EC50 [pM] mean, cytotoxicity on CHO-CD33 cells [12]: 11.8 pM
- EC50 [pM] mean, cytotoxicity on HL-60 cells [12]: 1.4 pM
- EC50 [pM] mean, cytotoxicity on K562 cells [12]: 4.5 pM
- EC50 [pM] mean, cytotoxicity on KASUMI-1 cells [12]: 1.3 pM
- EC50 [pM] mean, cytotoxicity on KG-1 cells [12]: 1 pM
- EC50 [pM] mean, cytotoxicity on RPMI-8226 cells [12]: 14 pM
- EC50 [pM] mean, cytotoxicity on THP-1 cells [12]: 1.9 pM
- EC50 [pM] mean, cytotoxicity on U-937 cells [12]: 0.9 pM
- Kd [4]: 0.3 nM
- Kd [5]: 0.9 nM
- Kd [6]: 0.3 nM
- Kd [7]: 0.5 nM
- Kd [8]: 1.5 nM
- Kd [9]: 1.5 nM
- KD ratio cynoCD33/ huCD33 [10]: 1.7

B3: CD33/CD3 tandem diabody 14 (bispecific antibody)
chain: B2 chain with V218N, Y221F, Y222S, T312S
notes: Non-covalent homodimer; domain order 1; also called TandAb 14
- EC50 on HL-60 [pM] (cytotoxicity) [2]: 1.6 pM
- EC50 [pM (pg/mL)] on human CD33+ target cell lines: HL-60 (cytotoxicity, E:T 5:1, 20-24 h) [11]: 1.6 pM and 168 pg/mL
- EC50 [pM (pg/mL)] on human CD33+ target cell lines: KG-1 (cytotoxicity, E:T 5:1, 20-24 h) [11]: 2.6 pM and 273 pg/mL
- EC50 [pM (pg/mL)] on human CD33+ target cell lines: U-937 (cytotoxicity, E:T 5:1, 20-24 h) [11]: 3.6 pM and 378 pg/mL
- EC50 [pM (pg/mL)] on human CD33+ target cell lines: mean of HL-60, U-937, KG-1 [11]: 2.6 pM and 273 pg/mL
- CD25 Induction EC50 (pM) [3]: 10 pM
- CD69 Induction EC50 (pM) [3]: 7 pM
- T cell Proliferation in PBMC EC50 (pM) [3]: 6 pM
- Kd [4]: 0.3 nM
- Kd [5]: 0.3 nM
- Kd [6]: 0.3 nM
- Kd [7]: 1.2 nM
- Kd [8]: 2.1 nM
- Kd [9]: 2.1 nM
- KD ratio cynoCD33/ huCD33 [10]: 1

B4: CD33/CD3 tandem diabody 16 (bispecific antibody)
chain: B2 chain with V218N, Y222S, Y223L
notes: Non-covalent homodimer; domain order 1; also called TandAb 16
- IC50, lysis of KG-1 cells (separate experiment) [1]: 5 pM
- IC50, lysis of KG-1 cells with human T cells (E:T 5:1, 24 h) [1]: ~0.5 pM
- EC50 on HL-60 [pM] (cytotoxicity) [2]: 1.5 pM
- EC50 [pM (pg/mL)] on human CD33+ target cell lines: HL-60 (cytotoxicity, E:T 5:1, 20-24 h) [11]: 1.5 pM and 158 pg/mL
- EC50 [pM (pg/mL)] on human CD33+ target cell lines: KG-1 (cytotoxicity, E:T 5:1, 20-24 h) [11]: 1.8 pM and 189 pg/mL
- EC50 [pM (pg/mL)] on human CD33+ target cell lines: U-937 (cytotoxicity, E:T 5:1, 20-24 h) [11]: 1.9 pM and 200 pg/mL
- EC50 [pM (pg/mL)] on human CD33+ target cell lines: mean of HL-60, U-937, KG-1 [11]: 1.7 pM and 179 pg/mL
- CD25 Induction EC50 (pM) [3]: 1 pM
- CD69 Induction EC50 (pM) [3]: 2 pM
- T cell Proliferation in PBMC EC50 (pM) [3]: 3 pM
- EC50 [pM] mean, cytotoxicity on BV-173 cells [12]: 3.2 pM
- EC50 [pM] mean, cytotoxicity on CHO-CD33 cells [12]: 24 pM
- EC50 [pM] mean, cytotoxicity on HL-60 cells [12]: 1.6 pM
- EC50 [pM] mean, cytotoxicity on K562 cells [12]: 4.8 pM
- EC50 [pM] mean, cytotoxicity on KASUMI-1 cells [12]: 2.4 pM
- EC50 [pM] mean, cytotoxicity on KG-1 cells [12]: 1.9 pM
- EC50 [pM] mean, cytotoxicity on RPMI-8226 cells [12]: 2.8 pM
- EC50 [pM] mean, cytotoxicity on THP-1 cells [12]: 6 pM
- EC50 [pM] mean, cytotoxicity on U-937 cells [12]: 1.3 pM
- EC50 [pM], calcein release, HL-60 targets, E:T 25:1, incubation 30 min [13]: 4.8 pM
- EC50 [pM], calcein release, HL-60 targets, E:T 25:1, incubation 60 min [13]: 2.5 pM
- EC50 [pM], calcein release, HL-60 targets, E:T 25:1, incubation 120 min [13]: 1.6 pM
- EC50 [pM], calcein release, HL-60 targets, E:T 25:1, incubation 180 min [13]: 1.6 pM
- EC50 [pM], calcein release, HL-60 targets, E:T 25:1, incubation 240 min [13]: 1.5 pM
- EC50 [pM], calcein release, HL-60 targets, E:T 25:1, incubation 300 min [13]: 1.6 pM
- Kd [4]: 0.3 nM
- Kd [5]: 0.2 nM
- Kd [6]: 0.3 nM
- Kd [7]: 0.3 nM
- Kd [8]: 5.1 nM
- Kd [9]: 2.1 nM
- KD ratio cynoCD33/ huCD33 [10]: 1.4
